{
  "source": "patent US20140221613A1",
  "key": {"[1]": {"target": "IgG1 type humanized monoclonal antibody"}, "[2]": {"target": "IgG1 type humanized monoclonal antibody", "remark": "listed apart in the source"}, "[3]": {"target": "IgG1 type humanized monoclonal antibody", "remark": "listed apart in the source"}, "[4]": {"target": "IgG1 type humanized monoclonal antibody", "experiment": "SPR, IgG1 antibody immobilised, pH 7.4"}, "human immunoglobulin IgG [5]": {"target": "human immunoglobulin IgG"}, "human immunoglobulin IgG [6]": {"target": "human immunoglobulin IgG", "remark": "listed apart in the source"}, "[7]": {"target": "Fc region of human immunoglobulin (human)", "experiment": "pH 7.4"}, "[8]": {"target": "Fc region of human immunoglobulin (human)", "experiment": "pH 4.5"}, "[9]": {"target": "Fc region of human immunoglobulin (human)", "experiment": "SPR, Fc immobilised, neutral region"}, "[10]": {"target": "Fc region of human immunoglobulin (human)", "experiment": "SPR, Fc immobilised, weakly acidic region"}},
  "note": "“And” between values parts separate entries of the source, which are not always exact repeats. Equal values may be shown once.",
  "data": [
    {"binder": "CGB19H-1D (designed binder) MAYYDPETGTWYSGGRDTYKLILNGKTLKGETTTEAVDAATAEKVFKHYANEHGVHGHWTYDPETKTFTVTERPEVIDASELTPAVGGGGSGGGGSGGGGSGGGGCHHHHHH", "values": [
      {"measurement": "Binding Rate of Antibody after Running Buffer for 10 min (Binding portion)", "setting": "[1]", "result": 52.6, "unit": "%"},
      {"measurement": "Dissociation Rate of Antibody at an acidic pH, pH2 (30s) later", "setting": "[2]", "result": 52.7, "unit": "%"},
      {"measurement": "Dissociation Rate of Antibody at an acidic pH, pH3 (30s) later", "setting": "[2]", "result": 35.1, "unit": "%"},
      {"measurement": "Dissociation Rate of Antibody at an acidic pH, pH5 (30s) later", "setting": "[2]", "result": 7.1, "unit": "%"}
    ]},
    {"binder": "CGB19H-3D (designed binder) MAYYDPETGTWYSGGRDTYKLILNGKTLKGETTTEAVDAATAEKVFKHYANEHGVHGHWTYDPETKTFTVTERPEVIDASELTPAVDTYKLILNGKTLKGETTTEAVDAATAEKVFKHYANEHGVHGHWTYDPETKTFTVTERPEVIDASELTPAVDTYKLILNGKTLKGETTTEAVDAATAEKVFKHYANEHGVHGHWTYDPETKTFTVTERPEVIDASELTPAVGGGGCHHHHHH", "values": [
      {"measurement": "Binding Rate of Antibody after Running Buffer for 10 min (Binding portion)", "setting": "[1]", "result": "62.5% and 69.6%"},
      {"measurement": "Dissociation Rate of Antibody at an acidic pH, pH2 (30s) later", "setting": "[2]", "result": "51.2% and 67.4%"},
      {"measurement": "Dissociation Rate of Antibody at an acidic pH, pH3 (30s) later", "setting": "[2]", "result": "36.2% and 29.9%"},
      {"measurement": "Dissociation Rate of Antibody at an acidic pH, pH5 (30s) later", "setting": "[2]", "result": "6.4% and 4.6%"},
      {"measurement": "Kd", "setting": "[3]", "result": 0.1, "unit": "nM"},
      {"measurement": "fold avidity improvement against M-PG19", "setting": "[4]", "result": 190, "unit": "fold"},
      {"measurement": "fold difference of the dissociation rate constant against M-PG19", "setting": "[4]", "result": 370, "unit": "times"}
    ]},
    {"binder": "CGB19H-4D (designed binder) MAYYDPETGTWYSGGRDTYKLILNGKTLKGETTTEAVDAATAEKVFKHYANEHGVHGHWTYDPETKTFTVTERPEVIDASELTPAVDTYKLILNGKTLKGETTTEAVDAATAEKVFKHYANEHGVHGHWTYDPETKTFTVTERPEVIDASELTPAVDTYKLILNGKTLKGETTTEAVDAATAEKVFKHYANEHGVHGHWTYDPETKTFTVTERPEVIDASELTPAVDTYKLILNGKTLKGETTTEAVDAATAEKVFKHYANEHGVHGHWTYDPETKTFTVTERPEVIDASELTPAVGGGGSGGGGSGGGGSGGGGCHHHHHH", "values": [
      {"measurement": "Binding Rate of Antibody after Running Buffer for 10 min (Binding portion)", "setting": "[1]", "result": "59.4% and 77.8%"},
      {"measurement": "Dissociation Rate of Antibody at an acidic pH, pH2 (30s) later", "setting": "[2]", "result": "55.6% and 76.3%"},
      {"measurement": "Dissociation Rate of Antibody at an acidic pH, pH3 (30s) later", "setting": "[2]", "result": "34.6% and 18.6%"},
      {"measurement": "Dissociation Rate of Antibody at an acidic pH, pH5 (30s) later", "setting": "[2]", "result": "6.9% and 3.7%"}
    ]},
    {"binder": "CGB19H-5D (designed binder) MAYYDPETGTWYSGGRDTYKLILNGKTLKGETTTEAVDAATAEKVFKHYANEHGVHGHWTYDPETKTFTVTERPEVIDASELTPAVDTYKLILNGKTLKGETTTEAVDAATAEKVFKHYANEHGVHGHWTYDPETKTFTVTERPEVIDASELTPAVDTYKLILNGKTLKGETTTEAVDAATAEKVFKHYANEHGVHGHWTYDPETKTFTVTERPEVIDASELTPAVDTYKLILNGKTLKGETTTEAVDAATAEKVFKHYANEHGVHGHWTYDPETKTFTVTERPEVIDASELTPAVDTYKLILNGKTLKGETTTEAVDAATAEKVFKHYANEHGVHGHWTYDPETKTFTVTERPEVIDASELTPAVGGGGSGGGGSGGGGSGGGGCHHHHHH", "values": [
      {"measurement": "Binding Rate of Antibody after Running Buffer for 10 min (Binding portion)", "setting": "[1]", "result": "65.2% and 82.7%"},
      {"measurement": "Dissociation Rate of Antibody at an acidic pH, pH2 (30s) later", "setting": "[2]", "result": "63.4% and 81.8%"},
      {"measurement": "Dissociation Rate of Antibody at an acidic pH, pH5 (30s) later", "setting": "[2]", "result": "5.6% and 2.1%"}
    ]},
    {"binder": "OXADac-PG14 (designed binder) MGAGTPVTAPLAGTIWKVLASEGQTVAAGEVLLILEAMKMETEIRAAQAGTVRGIAVKAGDAVAVGDTLMTLAGSGSDLYDDDDKGIITSLYKKAGSAAAPFTDTYKLILNGKTLKGETTTEAVDAATAEKVFKQYANEHGVDGHWTYDPETKTFTVTE", "values": [
      {"measurement": "Ratio of the remaining amount of antibody by SPR sensor gram at pH 4.0", "setting": "human immunoglobulin IgG [5]", "result": 71, "unit": "%"},
      {"measurement": "koff", "setting": "human immunoglobulin IgG [5]", "result": 0.04, "unit": "s⁻¹"}
    ]},
    {"binder": "OXADac-PG15 (designed binder) MGAGTPVTAPLAGTIWKVLASEGQTVAAGEVLLILEAMKMETEIRAAQAGTVRGIAVKAGDAVAVGDTLMTLAGSGSDLYDDDDKGIITSLYKKAGSAAAPFTDTYKLILNGKRLKGETTTEAVDAATAEKVFKQYANEHGVDGEWTYDPETKTFTVTE", "values": [
      {"measurement": "Ratio of the remaining amount of antibody by SPR sensor gram at pH 4.0", "setting": "human immunoglobulin IgG [5]", "result": 90, "unit": "%"},
      {"measurement": "koff", "setting": "human immunoglobulin IgG [5]", "result": 0.00044, "unit": "s⁻¹"}
    ]},
    {"binder": "OXADac-PG16 (designed binder) MGAGTPVTAPLAGTIWKVLASEGQTVAAGEVLLILEAMKMETEIRAAQAGTVRGIAVKAGDAVAVGDTLMTLAGSGSDLYDDDDKGIITSLYKKAGSAAAPFTDTYKLILNGKTLKGETITEAVDAATAEKVFKQYANEHGVDGEWTYDPETKTFTVTE", "values": [
      {"measurement": "Ratio of the remaining amount of antibody by SPR sensor gram at pH 4.0", "setting": "human immunoglobulin IgG [5]", "result": 94, "unit": "%"},
      {"measurement": "koff", "setting": "human immunoglobulin IgG [5]", "result": 0.00013, "unit": "s⁻¹"}
    ]},
    {"binder": "OXADac-PG17 (designed binder) MGAGTPVTAPLAGTIWKVLASEGQTVAAGEVLLILEAMKMETEIRAAQAGTVRGIAVKAGDAVAVGDTLMTLAGSGSDLYDDDDKGIITSLYKKAGSAAAPFTDTYKLILNGKRLKGETITEAVDAATAEKVFKQYANEHGVDGEWTYDPETKTFTVTE", "values": [
      {"measurement": "Ratio of the remaining amount of antibody by SPR sensor gram at pH 4.0", "setting": "human immunoglobulin IgG [5]", "result": 86, "unit": "%"},
      {"measurement": "koff", "setting": "human immunoglobulin IgG [5]", "result": 0.032, "unit": "s⁻¹"}
    ]},
    {"binder": "OXADac-PG19 (designed binder) MGAGTPVTAPLAGTIWKVLASEGQTVAAGEVLLILEAMKMETEIRAAQAGTVRGIAVKAGDAVAVGDTLMTLAGSGSDLYDDDDKGIITSLYKKAGSAAAPFTDTYKLILNGKTLKGETTTEAVDAATAEKVFKHYANEHGVHGHWTYDPETKTFTVTE", "values": [
      {"measurement": "Ratio of the remaining amount of antibody by SPR sensor gram at pH 4.0", "setting": "human immunoglobulin IgG [5]", "result": 38, "unit": "%"},
      {"measurement": "koff", "setting": "human immunoglobulin IgG [5]", "result": 0.27, "unit": "s⁻¹"},
      {"measurement": "increase of the dissociation rate constant against the wild-type", "setting": "human immunoglobulin IgG [6]", "result": 1000, "unit": "fold"},
      {"measurement": "percent of adsorbed IgG dissociated at pH 4.0", "setting": "human immunoglobulin IgG [6]", "result": 60, "unit": "%"}
    ]},
    {"binder": "OXADac-PG20 (designed binder) MGAGTPVTAPLAGTIWKVLASEGQTVAAGEVLLILEAMKMETEIRAAQAGTVRGIAVKAGDAVAVGDTLMTLAGSGSDLYDDDDKGIITSLYKKAGSAAAPFTDTYKLILNGKTLKGETTTEAVHAATAEKVFKHYANEHGVHGHWTYDPETKTFTVTE", "values": [
      {"measurement": "Ratio of the remaining amount of antibody by SPR sensor gram at pH 4.0", "setting": "human immunoglobulin IgG [5]", "result": 58, "unit": "%"}
    ]},
    {"binder": "M-PG07 (designed binder) MDTYKLILNGKTLKGETTTEAVDAATAEKVFKQYANEHGVDGEWTYDPETKTFTVTE", "values": [
      {"measurement": "Kd", "setting": "[7]", "result": 290, "unit": "nM"},
      {"measurement": "Kd", "setting": "[8]", "result": 230, "unit": "nM"}
    ]},
    {"binder": "M-PG19 (designed binder) MDTYKLILNGKTLKGETTTEAVDAATAEKVFKHYANEHGVHGHWTYDPETKTFTVTE", "values": [
      {"measurement": "Kd", "setting": "[7]", "result": 43, "unit": "nM"},
      {"measurement": "fold of avidity in the neutral region against M-PG01", "setting": "[9]", "result": 11, "unit": "times"},
      {"measurement": "fold of affinity in the acidic region against M-PG01", "setting": "[10]", "result": 0.6, "unit": "times"},
      {"measurement": "Kd", "setting": "[8]", "result": 1000, "unit": "nM"},
      {"measurement": "Kd", "setting": "[3]", "result": 19, "unit": "nM"}
    ]},
    {"binder": "OXADac-PG07 (designed binder) MGAGTPVTAPLAGTIWKVLASEGQTVAAGEVLLILEAMKMETEIRAAQAGTVRGIAVKAGDAVAVGDTLMTLAGSGSDLYDDDDKGIITSLYKKAGSAAAPFTDTYKLILNGKTLKGETTTEAVDAATAEKVFKQYANEHGVDGEWTYDPETKTFTVTE", "values": [
      {"measurement": "Ratio of the remaining amount of antibody by SPR sensor gram at pH 4.0", "setting": "human immunoglobulin IgG [5]", "result": 93, "unit": "%"},
      {"measurement": "koff", "setting": "human immunoglobulin IgG [5]", "result": 0.00011, "unit": "s⁻¹"}
    ]},
    {"binder": "OXADac-PG13 (designed binder) MGAGTPVTAPLAGTIWKVLASEGQTVAAGEVLLILEAMKMETEIRAAQAGTVRGIAVKAGDAVAVGDTLMTLAGSGSDLYDDDDKGIITSLYKKAGSAAAPFTDTYKLILNGKTLKGETTTEAVDAATAEKVFKQYANEHGVHGEWTYDPETKTFTVTE", "values": [
      {"measurement": "Ratio of the remaining amount of antibody by SPR sensor gram at pH 4.0", "setting": "human immunoglobulin IgG [5]", "result": 64, "unit": "%"},
      {"measurement": "koff", "setting": "human immunoglobulin IgG [5]", "result": 0.06, "unit": "s⁻¹"}
    ]}
  ]
}
